Experimental data reported in patent US20200149053A1, “MICROORGANISMS PROGRAMMED TO PRODUCE IMMUNE MODULATORS AND ANTI-CANCER THERAPEUTICS IN TUMOR CELLS” (Synlogic Operating Company, Inc., priority 2017, published 2020).

Columns and labels:
Biotinylated IgG = test: whole cell ELISA, scFv displayed on E. coli Nissle, biotinylated IgG as negative control, streptavidin-HRP, TMB
[1] = biological target: biotinylated-mPD1 (mouse) (UniProt Q02242); test: whole cell ELISA, scFv displayed on E. coli Nissle, biotinylated mPD1, streptavidin-HRP, TMB
IgG (coating control) [2] = test: ELISA, IgG coated plate, E. coli extract (1/2), anti-V5-HRP, TMB
IgG (coating control) [3] = test: ELISA, IgG coated plate, E. coli extract, anti-V5-HRP, TMB
NK cells = settings: upon treatment; cited from earlier work
anti-mCD40L antibody = test: CD40 ELISA binding assay, plate coated with anti-mCD40L antibody; settings: clarified supernatant
Experimental: (§1) Cultures were diluted 1:100 in LB and grown shaking (200 rpm) to an optical density of 0.8, at which time the cultures were cooled down to room temperature and anhydrous tetracycline (ATC) was added to cultures at a concentration of 100 ng/mL, to induce expression of mCD40L1 and mCD40L2.
(§2) After 18 hours of induction, cells were spun down, and supernatant was collected. To generate cell free medium, the clarified supernatant was further filtered through a 0.22 micron filter to remove any remaining bacteria and placed on ice.

mCD40 = biological target: T1, mCD40 (Mus musculus, UniProt P27512); test: CD40 ELISA binding assay, plate coated with mCD40; settings: clarified supernatant; for CD40 ELISA signal, coating material IgG / CD40 ELISA signal, coating material PBS: control coating
T1 sequence (P27512 20-289): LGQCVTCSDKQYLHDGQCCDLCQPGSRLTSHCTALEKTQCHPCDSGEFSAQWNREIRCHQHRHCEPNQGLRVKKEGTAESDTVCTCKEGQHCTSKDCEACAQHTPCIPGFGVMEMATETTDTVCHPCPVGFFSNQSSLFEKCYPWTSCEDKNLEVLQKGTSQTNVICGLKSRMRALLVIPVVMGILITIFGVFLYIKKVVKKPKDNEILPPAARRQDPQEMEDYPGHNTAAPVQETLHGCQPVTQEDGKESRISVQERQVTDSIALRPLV
Experimental: as §1, §2

[4] = biological target: T2, secreted mCD40L1 (47-260) (mouse, UniProt P27548 47-260); test: ELISA, mCD40 coated plate
T2 construct: range 47-260; also called Secreted CD40-L1; SYN3366 supernatant
T2 sequence (looked up): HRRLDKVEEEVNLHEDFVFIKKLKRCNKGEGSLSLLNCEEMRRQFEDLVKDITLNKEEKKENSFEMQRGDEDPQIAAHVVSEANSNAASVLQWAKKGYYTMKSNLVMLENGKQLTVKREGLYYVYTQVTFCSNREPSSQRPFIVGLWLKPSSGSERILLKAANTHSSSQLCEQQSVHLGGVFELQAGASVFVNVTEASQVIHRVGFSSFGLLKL

IgG (coating control) [5] = test: ELISA, IgG coated plate, bacterial supernatant
[6] = biological target: T3, mouseCD47 (recombinant) (mouse) (UniProt Q61735); test: ELISA, mCD47 coated plate, bacterial supernatant
T3 sequence (looked up): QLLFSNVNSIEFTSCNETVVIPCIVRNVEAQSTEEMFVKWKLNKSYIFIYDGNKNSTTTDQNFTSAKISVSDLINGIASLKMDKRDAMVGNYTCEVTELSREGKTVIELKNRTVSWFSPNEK

PD1 on mouse EL4 cells = biological target: T4, PD1 on mouse EL4 cells (Mus musculus, UniProt Q02242); test: Flow cytometric analysis of anti-PD1-scFv binding to EL4 cells, PDL1 competition
T4 construct: EL4 are a mouse lymphoma cell line which expresses PD1 on its cell surface; endogenous in cells; host or cells: EL4 (mouse lymphoma)
T4 sequence (Q02242 25-288): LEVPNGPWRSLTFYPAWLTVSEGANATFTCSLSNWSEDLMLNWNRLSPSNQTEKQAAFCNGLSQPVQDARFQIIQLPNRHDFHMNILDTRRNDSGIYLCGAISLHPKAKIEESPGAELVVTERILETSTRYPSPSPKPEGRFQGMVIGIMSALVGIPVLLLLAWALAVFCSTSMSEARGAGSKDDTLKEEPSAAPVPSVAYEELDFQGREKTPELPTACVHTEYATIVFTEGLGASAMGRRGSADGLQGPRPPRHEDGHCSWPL
Experimental: To determine whether anti-PD1-scFv expressed in E. coli binds to surface PD1 on mouse EL4 cells, flow cytometric analysis was performed using EL4 cells. EL4 are a mouse lymphoma cell line which expresses PD1 on its cell surface.
EL4 cells were grown in Dulbecco's Modified Eagle's Medium (DMEM) with 10% FBS. Cells were spun down, supernatant was aspirated, pellet was resuspended in 1 nil D-PBS, transferred into chilled assay tubes (1×10^6 cells), and washed 2-3 times in D-PBS with 0.5% BSA. Cells were resuspended in PBS with 0.5% BSA, to which the purified scFv-V5 and anti-V5-FITC antibody were added and incubated for 1 hour at room temperature. Negative control left out scFv-V5. Cells were resuspended in 0.5 ml PBS and analyzed on a flow cytometer.
EL4 are a mouse lymphoma cell line which expresses PD1 on its cell surface.
EL4 cells were grown in Dulbecco's Modified Eagle's Medium (DMEM) with 10% FBS and 1% Penicillin-Streptomycin Cells were spun down, supernatant was aspirated, pellet was resuspended in 1 ml D-PBS, transferred into chilled assay tubes (1×10^6 cells), and washed 3 times in D-PBS. Cells were resuspended in D-PBS with 0.5% BSA, to which the purified scFv-V5 and anti-V5-FITC antibody were added and incubated for 1 hour at room temperature. Negative control left out secreted J43-scFv-V5. Cells were then resuspended in 0.5 ml PBS and analyzed on a flow cytometer. Results are shown in (FIG. 64).
Next, a competition assay was conducted to determine whether PDL1 could inhibit the binding of the anti-PD1-scFv secreted by the genetically engineered bacteria from binding to murine PD1. EL4 cells were grown and flow cytometry protocol was conducted essentially as described above except that PDL1 was added at various concentrations ([…]) during the incubation of the secreted anti-PD1-scFv-V5. Rat-IgG was used as a negative control of secreted scFv.

PD1 = biological target: T5, PD1 (Mus musculus, UniProt Q02242); test: ELISA binding assay of bacterial extracts (J43-scFv); settings: α-V5-HRP
T5 construct: purchased Rndsystems
T5 sequence (Q02242 25-288): T4 sequence (Q02242 25-288)
Experimental: E. coli comprising either tet-inducible J43-Anti-PD1-scFv-V5 or wild type controls were grown overnight in LB medium. […] Same amount of tetracycline was added to wild type control cultures.

[7] = biological target: T6, recombinant SIRPα (Rndsystems) (mouse, UniProt P97797 32-373); test: flow cytometry competition on CT26 cells
T6 construct: also called recombinant mSIRPα
T6 sequence (looked up): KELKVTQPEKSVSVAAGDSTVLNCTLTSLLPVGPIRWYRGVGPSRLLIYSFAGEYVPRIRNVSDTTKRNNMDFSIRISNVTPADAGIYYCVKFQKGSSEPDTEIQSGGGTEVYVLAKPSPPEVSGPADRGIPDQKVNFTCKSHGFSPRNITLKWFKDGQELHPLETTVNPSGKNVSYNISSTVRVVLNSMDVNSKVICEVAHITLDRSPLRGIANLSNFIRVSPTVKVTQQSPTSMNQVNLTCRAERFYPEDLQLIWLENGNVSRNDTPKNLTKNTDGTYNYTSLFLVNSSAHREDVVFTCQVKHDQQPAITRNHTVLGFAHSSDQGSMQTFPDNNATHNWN

LppOmpA-FLAG-J43scFv-V5-HIS displayed on E. coli Nissle SYN2798
OD450 (Biotinylated IgG): 0.133 | OD450 [1]: 0.421

J43-Anti-PD1-scFv-V5
ELISA signal at 450 nm (IgG (coating control) [2]): 0.11 | ELISA signal at 450 nm (IgG (coating control) [3]): 0.13

recombinant human IL-15: recombinant human IL-15 of a first-in-human clinical trial
expansion of NK cells (NK cells): 10 fold | proliferation of γδT cells and CD8+ T cells (NK cells): significantly increased

B1: Secreted CD40-L1: mCD40L1 (47-260), extracellular portion of mCD40L, secreted by SYN3366 (protein)
chain: T2 sequence (looked up)
modifications: left off: small tags and cut ends
CD40 ELISA signal, coating material Anti-mCD40L (anti-mCD40L antibody): 0.394 | CD40 ELISA signal, coating material mCD40 (mCD40): 0.231 | CD40 ELISA signal, coating material IgG (mCD40): 0.052 | CD40 ELISA signal, coating material PBS (mCD40): 0.049

B2: mCD40 (receptor, mouse, UniProt P27512 24-193, looked up)
chain: VTCSDKQYLHDGQCCDLCQPGSRLTSHCTALEKTQCHPCDSGEFSAQWNREIRCHQHRHCEPNQGLRVKKEGTAESDTVCTCKEGQHCTSKDCEACAQHTPCIPGFGVMEMATETTDTVCHPCPVGFFSNQSSLFEKCYPWTSCEDKNLEVLQKGTSQTNVICGLKSRMR
binding result [4]: binds

B3: secreted anti-mCD47 scFv (scFv, from a related filing)
scFv: QVKLLQSGAALVKPGASVKMSCQASGYSFTDYWVTWVKQSHGQSLEWIGEIYPSNTVTNFNDNFKGKATLTVDKSTSTAYMELSRLTSEDSAIYYCTRIGNSGYRVGWFIYWGQGTLVTVLSGGGGSGGGGSGGGGSDTVLTQSPALAVSPGERVTISCKASESVSSHMHWYQQKPGQQPKLLIYKASNLASGVPARFSGSGSGTDFTLTIDPVEADDTATYFCQQGWNGPFTFGAGTRLELKRADAAGSGELGGSGKPIPNPLLGLDSTGSGHHHHHH
ELISA signal (IgG (coating control) [5]): 0.067 | ELISA signal [6]: 0.527

B4: J43-scFv-V5: anti-PD1 single-chain variable fragment based on J43 monoclonal antibody, V5 tagged, expressed in E. coli (protein)
scFv: MQLEVRLLESGGGLVKPEGSLKLSCVASGFTFSDYFMSWVRQAPGKGLEWVAHIYTKSYNYATYYSGSVKGRFTISRDDSRSMVYLQMNNLRTEDTATYYCTRDGSGYPSLDFWGQGTQVTVSSGGGGSGGGGSGGGGSYELTQPPSASVNVGETVKITCSGDQLPKYFADWFHQRSDQTILQVIYDDNKRPSGIPERISGSSSGTTATLTIRDVRAEDEGDYYCFSGYVDSDSKLYVFGSGTQLTVLGKGELNSKLEGKPIPNPLLGLDSTRTGHHHHHH
PDL1 competition against binding to mPD1 on EL4 cells (PD1 on mouse EL4 cells; PDL1 added at various concentrations): PDL1 competed in a dose dependent manner | binding to surface PD1 on EL4 cells (flow cytometry) (PD1 on mouse EL4 cells; purified scFv, anti-V5-FITC): population shift is observed | staining of EL4 cells with different amounts of secreted scFv (PD1 on mouse EL4 cells; secreted scFv, increasing amounts): dose-dependent staining of the EL4 cells was observed | binding to PD1 on EL4 cells (flow cytometry) (PD1 on mouse EL4 cells; secreted scFv, anti-V5-FITC): population shift is observed | Signal intensity at 450 nm, IgG coating (PD1; bacterial extract (1/2)): 0.11 | Signal intensity at 450 nm, PBS coating (PD1; bacterial extract (1/2)): 0.10 | Signal intensity at 450 nm, mPD1 coating (PD1; bacterial extract (1/2)): 0.90 | Signal intensity at 450 nm, IgG coating (PD1; bacterial extract): 0.13 | Signal intensity at 450 nm, PBS coating (PD1; bacterial extract): 0.11 | Signal intensity at 450 nm, mPD1 coating (PD1; bacterial extract): 1.41

B5: CD47 on mouse CT26 cells (receptor, UniProt Q61735 19-303, looked up)
chain: QLLFSNVNSIEFTSCNETVVIPCIVRNVEAQSTEEMFVKWKLNKSYIFIYDGNKNSTTTDQNFTSAKISVSDLINGIASLKMDKRDAMVGNYTCEVTELSREGKTVIELKNRTVSWFSPNEKILIVIFPILAILLFWGKFGILTLKYKSSHTNKRIILLLVAGLVLTVIVVVGAILLIPGEKPVKNASGLGLIVISTGILILLQYNVFMTAFGMTSFTIAILITQVLGYVLALVGLCLCIMACEPVHGPLLISGLGIIALAELLGLVYMKFVASNQRTIQPPRNR
notes: whole, on cells; also called murine CD47 on CT26 cells
binding result [7]: binds

B6: Secreted CD40-L2: mCD40L2 (112-260), soluble form of mCD40L, secreted by SYN3367 (protein)
chain: MQRGDEDPQIAAHVVSEANSNAASVLQWAKKGYYTMKSNLVMLENGKQLTVKREGLYYVYTQVTFCSNREPSSQRPFIVGLWLKPSSGSERILLKAANTHSSSQLCEQQSVHLGGVFELQAGASVFVNVTEASQVIHRVGFSSFGLLKL
modifications: left off: small tags and cut ends
CD40 ELISA signal, coating material Anti-mCD40L (anti-mCD40L antibody): 0.825 | CD40 ELISA signal, coating material mCD40 (mCD40): 0.639 | CD40 ELISA signal, coating material IgG (mCD40): 0.052 | CD40 ELISA signal, coating material PBS (mCD40): 0.05
